In the supplement of paper PMC12636428:

Each sequence was assayed on Saccharomyces cerevisiae (assay: transcriptional activation domain activity (GFP:mCherry ratio, weighted mean of sorted bins, harmonized to initial dataset scale) (arbitrary fluorescence ratio units); higher = stronger transcriptional activation). Details: beta-estradiol 1 µM; induction time 4 h.
In short: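 After a 1:5 dilution into SC with 1 uM beta-estradiol and 4 hours at 30 °C, yeast diploids carrying a GFP reporter and URA3-integrated barcoded tiles were sorted into 8 bins by GFP:mCherry ratio. The tiles were fused to an estradiol-inducible synthetic transcription factor. Barcodes were sequenced, tiles below 50 reads were discarded, and activation activity was taken as the read-weighted mean of bin median fluorescence, averaged across barcodes and linearly mapped onto the initial dataset scale.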

Sequence	transcriptional activation domain activity
MMYDSLSSLFVSTLFFSLYEFLCLSCPLCFNYPFQVGFCTLFLFFHPLFAFMQ	34500
MNAFRPLHFLFYFIFLLLSMKALRFFIFSIFFFIFLHLHLCIHIYIALLFSYP	30600
MNAQQLSGTRHKKEIKRRTKTGCLTCRKRRIKCDEGHPTCRNCQKSKRECLGY	38600
MNAVQASGLVISLVLYVAVVFILLAGPLLFFLCYFFFLISITFPVHLPPMRVS	63800
MNCGIGFLNFHSQTSFKFLLFILFHFNFFAYLPLLTSCYSRLFSFSFSTIYFI	61200
MNCRIVWNRCCGGLVPRFLLFLWCFGTVGYYRYFFSMGLGILLLWYILVLTTV	50600
MNDCSAGCAGGQFPVGQDGLICIVEFNTITCVSTGSIVFLMLHSWLYFVLLIF	71600
MNDKVVSCETRRRRKAREGREKRGKGEERGEKREGRRERGEREREKRKERGRE	25300
MNFFFCMRSWTLLCYPKTGLLFFILCFFSSALSILSPPPCIFFFFFFLSRVCC	45100
MNFTDIYFSDIIYVLLLYLLILFTFFLDLLISFTFVTLYSILFLFVLYSFILN	70500
MNFWAWFFFFFYSLLILITSFLSFVFFFSLFLFWFLFLFLFPFLSLLIFPLPS	41100
MNGDRDSGRSRDHYSSRGDRDDRRDRDRDRRRRSRSPGHRSSRRDYEVDTYSS	45700
MNGGNGFGFWFGVWFWLGIYILSLFFFFFSFSFLLLCVFVSFHSLVFFFFFFS	53300
MNGLWCRDDILFYISFVLILFSSFSIFLLLLDRLRFLFSFLFFFFFWCFVFIV	45800
MNHTSRFFSPFFLFSLFLSFPSFLLPCFLLLFLFLPFLPPSLSLLSLILYKFW	31900
MNIDAPRPRPGGDRPIRRRRRPVVACNECRRRKIACDRKSPCCQCTLHRVNCV	44600
MNILNLEMWYYLLECLNLRFVLVFFLLSLFFSSRFTGGLVGVECFSFFVWITM	86000
MNITTVRALGLYILFHQYLIMIEDFICGFLIWYLRYFFYFTYLLCTVISYLSC	78500
MNKLFFKLRICVLIKIMLLQFVIIATIYNCNYFIIIVMYICLLLLLPFKLVYD	52100
MNLDTSPDFVHFFLGFTGGVSILDLYCLFMYTFFDMIQLQLNPFSDFFFPFSL	62100
MNLILRCIWRVTKTIPRLIQTKSIKPDILLYDIHKFFVTVPPREWKRRATEFP	55900

Sequence	transcriptional activation domain activity
MNLLFITFFLLVMWVVWFICVVVPFFLLLLLCFFSFLFFRLFGAGWLGWVGNF	42500
MNLSRVFLKVRAIAFSCISLLSFLWIILLCLMLYYRWDESDHSEHSLLIILLL	45100
MNLSRYAVVLATQWGILIMLAMNQLCIPSFLTMFAYIPTKVLQFFHYFIVSLF	47700
MNLTLFYYTFLLSFFLIYCVVLNLYLRFFPANFVNMPLFISLTFLKCAWIPLL	56200
MNLVSLAAVCLFYFFSPTLFFVPSLCSHGHLFTYGHFLLLLCSLILPWTCFRL	72000
MNLYLLCRYMTLVYCFVYMLGNNITKFDCEVWVKALLSFGYIASILSSSLIVL	61200
MNPHFLLPSIVSFQFSCFFGCLVVYLSVFFSRFIFILTFPSIYFSSTVFFFVS	37100
MNPPDNIIILPFHPLPFFWLLIFIPFSLSLPSSFFFNSNLSFLFFFFVFCFMI	68600
MNPPIHSLSFLQSYICFMLIPPLPLMFIIVFHPLYFFWLFLSFLLLDYYLSLL	37800
MNPTPAVFALFFPVIFCVYICYAWFLLFFVFWEPFFFLHIFLYRIILLSIWNL	29900
MNQHYGFLNCDLFFYFFFSSLFLIWPFLLFSFSFTVFPYLFTIMETYFGHIKT	28700
MNQSPDDTGGEDQTTAPSWRACDNCRARKIKCDKRSPCSNCRVSNAICRTAKK	30600
MNQTRHFFSPFFLFSLFLSFPSFLLSSFLLLFLPFYFSPSYLLLCLFSLIFYK	52800
MNQTSCFFPPFFLFSFFFFLFFFPFPHSSSLPSFFFSFPSISPLFTSFSVSSL	35200
MNQTSCFFSAFFLFALFLSFPSFLLPSFFLLFLLFYFFPSYLLLCLFSLIFYK	57200
MNQTSRFFLLFFFFFFFYFFPFSHLLPSFLLLFLSFYFSPSYLLLCLFSLIFY	42600
MNQTSRFFSPFFLFLFLLFLSFLSPPPFLPSSLPFLLFLPFLPLSLSLLSLIF	15400
MNQTSRFFSPFFSPFFSPFFSPFFLLFFLFSLFLSFPSFLLPCFLLLFLSFYF	48800
MNRFSIRFTFVISLIDILRGIIILLYTYIHNVGFQCSLISFLFHWLTLVYFFL	55100
MNRIKSARGRDDGSDGEVRILVVSGPRVREVEWSGVQPAWMAVEVVVVMECPR	36800
MNTNWNILPPVLFKWGPSLMVLSFNKPYFCSALPWYLYLCIFMCCLTHLYYFI	70600

Sequence	transcriptional activation domain activity
MNVLTFFYVVGGVFFFFTISFALPGGYIVLDLSYYNHIICATYLLLLFEFMFY	54200
MNYLELSLVILTCLWDILLVVTFCSYRRIFRRVNMVNIMTISLLKHLSVFCLF	52300
MNYLFSCFKFFLFFFFFLLFSFSPHLFFIFSCLLYLACLCVCVWWKGPFSCIS	72500
MPAIFFGSQIGGETLQPLSYTGLPWKLLIQDILLFLRWCYYLPNIVIPLWPWP	67400
MPALQCALLLHQVNMAFLQWNCMLYTIYHFRIIHIIILLLHMCTRTIICLLNG	37700
MPASSSTAAASPGNSHNVVGVHYKVGKKIGEGSFGIIYEGKQKEERTNLLNNQ	35300
MPAVKKDAPSQRQQDKESKRARGALSCAECRRLKLKCDKTVPCSSCKRRGCSA	34600
MPAYLDKPLTFLAFDWCVTFFFFCCFFLLILFLSLLVINVIVLCLLPLISLVS	< 6570
MPCLCHFWMTCLCHFRMPLFFYFQMPCLCHFWMTCLCHFLMPCLFYFWMPFLC	43200
MPDVIFKPPPADPCHYDMCLVLYYSVLFSHFIVGFFLRVLHLWCSLLHFYSRI	63500
MPDVWLSWLVLSFAPSPPFHHFLWFWFCLIAWFIFFRPITWTFDTLFWFLFLP	43400
MPEETVTEPRKKRAKIMSACSECRRKKTKCNGEQPCRNCQKSSVQCVYPAATQ	36500
MPEPAAAAAPRQRAFRTKSRLGCLQCKRRHVKCDERRPRCGRCVAAGSDCSLQ	17400
MPEVESARPTTSSKCIVLFYLFFLPCLSPFLYFLMLTMASVPSPLGFLLLLVC	66100
MPFFSDFLFLFLFFFLEFFFFFFLPGFRLGYSSLFSSLLFFFFGFPIPPPHLS	46200
MPFGRRSAFGVFFIYHFFFVLHLIFTGFQSIFVYIGLSKLFFFWFGPFFFLFP	61800
MPFNLPPRAIGVATRVLEELGLFNIYKSCIDTKILCIQRFVRLFAYGGSTLVL	44200
MPFRNCFACIICCSWLLYLDVLLILSMYSIYFMGGFARYLFWFIYWFFGIMEL	44800
MPFSVSASNILLSPFHLIFWSIRNFSNILIFLFSPFFLVLYYASYVFTPIFIP	96500
MPFYMPSKGLAIKDFVGQIALIIKVYVNPITLVSISYHYYMFFLSLNCLWLFL	65100
MPGGWVFLMSIAFYYFILLFFLLLPMIYGFLFVCLFGVGTCFVICTFGFFPFF	62400

Sequence	transcriptional activation domain activity
MPGHALVDIQNTFGCTFIGLVISILYLILNFGNVENLEYNMWAMNLQVDITGL	56500
MPGLCIWYGVFWVVGFFSFFLLVLRVMGFLVCVFVRLVCVCFFRAFDICFFFS	34500
MPGTCTLPYYSNLPIMLVLVLIRRSNYFFFLVSLTTGSFLTTFFSLFSVRLPL	67000
MPGVTGHHLTSWYWLSFIFIFLFYFALLVVFIWVIFSYLFTHLIRFGHAVVVS	29000
MPHLCVSVCLFLVLVMKRWLHVCRDIICRSLSWPEYEFSHFCSLIMRVLMLLL	76300
MPHTHLIFESCFFIVFSPNDLLTTDYLFFLPFPFPFPFPFLFPFPFLFPFLFL	63100
MPHYNSFNMDFSKLRNACGIVLLHWRRYRRILWLIAKNFMRLRGLVSLFDSGP	48600
MPIGCLMRQVHWHRAEMREYQACLLIFQALLCTTGDPFAHILMYMWFGILYRF	58800
MPIGPIIMLYPMRKHHSILPCKIQRLLEYLWSFLLIQKDWYRYEQTNKYSIMA	40100
MPILMQFCFIMALNGICNSMHLYAAYNLRTHVLARVFWSILWLLLRSLCSAGW	70700
MPIPLRLPFPFCFWVRMGLLDVYYHTVGGLYGYVLGGGVVICWRWWCFSFFCL	55500
MPKLNLYKIFLSILCSVVILVVWFPNLESILLLRVLVFHLVKYIGLCLLFFLC	56000
MPLCSLHTYKGGWLWLWWLRWWWRNNNCEALNFSFFFFFFFFLFLFRGVDGVL	66000
MPLFCSISPSFHESVHFWFFFFFFLSLTLFPSFRLVSYFCTFFLFLNWVNRGF	44800
MPLLPRWRGKACKVVILAQFDHRYYIHGTLKRLTDVVAWLKAWWICVFWLGSR	61300
MPLMIIFRFTIFIFILFQFLSFPSFGRGVFLSFIFFFIIFFSFHDQLFLILFF	57000
MPLMIIFRFTIFYFYFVSIFFFLFLLLVGEFFFLLSFFFFLSFVFFLFTISYF	37100
MPLPLIFVYLSGQMLSFLGSLFGVYMYFASLVLNYLGLFSSLRLRLWSFFLTA	66200
MPLPPGISYILKRAPSLLLPGVITYFASKYVVNYCRLTLPRWILCALVLLAKP	86300
MPLPPLSLSLLVLHSRHSQHSFSLHTYTLTFLFYFPYLLIDLDYLAFFFIFFP	41400
